From US20120093811A1 (published 2012) come the findings set out here.

To fix the notation:
T1: VEGF-D (recombinant human; source not given) (human, UniProt O43915 89-205, limits assumed)
T1 construct: also used here as target of IC50 values averaged over Source 1 and Source 2; also called vascular endothelial growth factor-D
T1 sequence: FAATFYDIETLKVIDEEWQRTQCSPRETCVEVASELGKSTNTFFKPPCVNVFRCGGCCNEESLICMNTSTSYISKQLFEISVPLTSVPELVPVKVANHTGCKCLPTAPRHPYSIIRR

T2: Source 2 VEGF-D, purified recombinant human VEGF-D monomer (R&D Systems, Catalog Number 622-VD/CF) (human, UniProt O43915 93-201)
T2 sequence: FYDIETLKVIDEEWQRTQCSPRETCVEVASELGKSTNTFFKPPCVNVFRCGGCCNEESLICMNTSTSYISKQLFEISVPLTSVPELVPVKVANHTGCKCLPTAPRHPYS

T3: Source 1 VEGF-D, mature dimeric recombinant human VEGF-D (CSIRO) (human, UniProt O43915 89-205)
T3 sequence: T1 sequence

B1: scFv clone A63 (scFv)
scFv: QVQLVQSGAKVKQPGASVKASCKASGYTFTGYNMYWVRQAPGQGLEWMGYIDPYNGDTTYNQKFKGRVTMTTDTSTSTAYMELRSLRSDDTAVYYCARTSYYGGMDYWGRGTLVTVASGGGASGGGGSGGGGSDIVMTQTPLSSPVTLGQPASISCRSSQSLVHSNGNTYLHWLQQRPGQPPRLLIYKVSNRFSGVPDRFSGSGAGTDFTLKISRVEAEDVGVYYCSQSTHVPRTFGQGTKLEIKR
B2: scFv clone F61 (scFv)
scFv: B1 scFv with K10E, A20V, E82K
B3: scFv clone CJ37 (scFv)
scFv: B1 scFv with K10E, A20V, E82K, Q238R
B4: scFv clone AR74 (scFv)
scFv: B1 scFv with K10E, A20V, D73G, E82K, T99A
B5: scFv clone AW61 (scFv)
scFv: B1 scFv with K10E, A20V, V68A, E82K
B6: scFv clone DI26 (scFv)
scFv: B1 scFv with N55S
notes: also called DI126
B7: humanized IgG antibody derived from clone HX28 (antibody, V domains shown)
VH: QVQLVQSGAKVKQPGASVKASCKASGYTFTGYNMYWVRQAPGQGLEWMGYIDPYSGDTTYNQKFKGRVTMTTDTSTSTAYMELRSLRSDDTAVYYCARTSYYGGMDYWGRGTLVTVAS
VL: DIVMTQTPLSSPVTLGQPASISCRSSQSLVHSNGNTYLHWLQQRPGQPPRLLIYKVSNRFSGVPGRFSGSGAGTDFTLKISRVEAEDVGVYYCSQSTHVPRTFGQGTKLEIKR
notes: IgG
B8: scFv clone Q30 (scFv)
scFv: B1 scFv with K10E, A20V, T112A
B9: scFv clone K89 (scFv)
scFv: B1 scFv with K10E, A20V, S25R
B10: scFv clone W25 (scFv)
scFv: B1 scFv with K10E, A20V, E46G
B11: scFv clone G38 (scFv)
scFv: B1 scFv with K10E, A20V, A40V, V114A
B12: scFv clone H71 (scFv)
scFv: B1 scFv with K10E, K19R, A20V, T69A, S158T
B13: scFv clone HH69 (scFv)
scFv: B1 scFv with N55S, S144G, Q238R
B14: scFv clone I71 (scFv)
scFv: B1 scFv with K10E, K19R, A20V
B15: scFv clone H44 (scFv)
scFv: B1 scFv with K10E, A20V, E46G, G131R, V221M
notes: G131R lies in the scFv linker
B16: scFv clone HH41 (scFv)
scFv: B1 scFv with K10E, A20V, E82K, S165G
B17: scFv clone I84 (scFv)
scFv: B1 scFv with K10E, A20V, A40V
B18: scFv clone P88 (scFv)
scFv: B1 scFv with K10E, A20V, T138I
B19: scFv clone G11 (scFv)
scFv: B1 scFv with K10E, A20V, D198G
B20: scFv clone V37 (scFv)
scFv: B1 scFv with K10E, A20V, A40V
B21: scFv clone G37 (scFv)
scFv: B1 scFv with Q3R, K10E, A20V, S100G
B22: scFv clone W36 (scFv)
scFv: B1 scFv with K10E, A20V, E46G
B23: scFv clone DE03 (scFv)
scFv: B1 scFv with S25G
B24: scFv clone HX28 (scFv)
scFv: B1 scFv with N55S, D198G
B25: scFv clone HW78 (scFv)
scFv: B1 scFv with K10E, A20V, S25R, S77G, E82K
B26: scFv clone Z49 (scFv)
scFv: B1 scFv with K10E, A20V, D89G
B27: scFv clone G75 (scFv)
scFv: B1 scFv with K10E, A20V, A40V, T112A
B28: scFv clone Z23 (scFv)
scFv: B1 scFv with K10E, A20V, E46G, G131R
notes: G131R lies in the scFv linker
B29: scFv clone HU75 (scFv)
scFv: B1 scFv with K10E, A20V, E82K, S144G, Q238R

Numbering of substitutions follows the chain as printed.

One experiment has as its target T1, VEGF-D (recombinant human; source not …). As to the kind of experiment: SPR (BIAcore), KD against that of scFv 1A. On the procedure:
(§1) scFv variants were fully characterized using a BIAcore™ biosensor. All isolated scFv samples were purified as monomer peaks by anti-FLAG affinity chromatography followed by gel filtration chromatography. BIAcore™ analysis was performed by directly immobilizing VEGF-D on a CM5 surface using amine coupling, with the scFv run as the analyte. Analysis of binding was carried out using the BIAevaluation kinetic analysis software. All repeats were separate protein expressions and were performed at 25° C.
(§2) Clones F61, A63, AR7, AW61, CJ37, DI126 and DA18 were produced in large-scale expression cultures and purified by anti-FLAG affinity chromatography and gel filtration. The binding kinetics against VEGF-D were then measured using a BIAcore™ biosensor as described previously.
With B1, the “Fold-improvement with respect to clone 1A” value worked out at 2.7 fold.

In the case of B2, the “Fold-improvement with respect to clone 1A” value is 4 fold.

For B3, the “Fold-improvement with respect to clone 1A” value is 3.7 fold.

For the molecule B4, the “Fold-improvement with respect to clone 1A” value was determined as 6.2 fold.

For B5, the “Fold-improvement with respect to clone 1A” value came to 3.1 fold.

For the molecule B6, the “Fold-improvement with respect to clone 1A” value was 4.2 fold.

The target in the next experiment is T2, Source 2 VEGF-D, purified recombinant …. Description: cell-based or functional assay.
As for B7, the “rank in the VEGFR-3-Ba/F3 bioassay” value is 1 rank.

A further experiment addresses T3, Source 1 VEGF-D, mature dimeric …. Description: cell-based or functional assay.
As to B7, the “rank in the VEGFR-3-Ba/F3 bioassay” value was determined as 1 rank.

For a further experiment the target is unchanged. As to the kind of experiment: SPR Protocol A: IgG captured by anti-human Fc, VEGF-D dimer as analyte. On the procedure: (§3) Protocol A: The first assay format, Protocol A, used an assay system where IgGs were captured on a biosensor chip surface using an anti-human IgG (Fc) antibody and the Source 1 VEGF-D dimer run over the chip as the analyte in solution. This ensured that all IgG molecules were presented to the antigen in an active orientation.
(§4) The SPR protocol was slightly modified to compensate for the dimeric nature of the VEGF-D. Ig-1A or IgG variants were analyzed using an anti-human capture kit as described for Anti-human IgG (Fc) capture above, except that 1000 RU of the IgG or IgG variant was captured on the anti-human chip surface. […] The kinetics generated using this approach are accurate within the experimental parameters set. This standard assay protocol is best suited to studying 1:1 interactions and thus, may not be ideal for analyzing binding between the IgG variants and the VEGF-D dimer. In light of this, Protocol B was also used.
As for B7, the Kd was 0.383 nM, the off-rate (koff) amounted to 0.00014 s⁻¹ and the kon worked out at 360000 M⁻¹ s⁻¹.

Another experiment concerns the target T1, VEGF-D (recombinant human; source not …). As to the kind of experiment: SPR (BIAcore), VEGF-D amine-coupled on CM5, purified scFv as analyte. As to the method:
as §1, §2
As to B1, the Kd came to 4.83 nM, the koff worked out at 0.0072 s⁻¹ and the kon is 1.49e+06 M⁻¹ s⁻¹.

B2: the Kd was determined as 3.31 nM, the koff worked out at 0.00899 s⁻¹ and the kon amounted to 2.72e+06 M⁻¹ s⁻¹.

Take B3: the equilibrium dissociation constant (Kd) is 3.55 nM, the koff was 0.00995 s⁻¹ and the kon was found to be 2.81e+06 M⁻¹ s⁻¹.

As to B4, the equilibrium dissociation constant (Kd) worked out at 2.12 nM, the dissociation rate constant (koff) is 0.00379 s⁻¹ and the kon was determined as 1.79e+06 M⁻¹ s⁻¹.

Take B5: the Kd came to 4.23 nM, the koff is 0.00828 s⁻¹ and the kon is 1.96e+06 M⁻¹ s⁻¹.

Consider B6, for which the Kd came to 3.12 nM, the koff was found to be 0.0093 s⁻¹ and the kon stood at 2.98e+06 M⁻¹ s⁻¹.

The next experiment has the same target. As to the kind of experiment: SPR (BIAcore) off-rate ranking of scFv clones. On the procedure:
Screening based on scFv binding properties involved surface plasmon resonance (SPR) measurements with a BIAcore™ biosensor. scFv variants were expressed in 200 μL E. coli cultures and the supernatants used to generate crude off-rate only kinetics, which were assessed “relative” to 1A, or other variants.
In general terms: In SPR one partner is held on a chip, and binding of the other changes the refractive index at the surface.
With B1, the koff is 0.00327 s⁻¹.

As for B8, the off-rate constant (koff) amounted to 0.0072 s⁻¹.

B2: the koff turned out to be 0.00335 s⁻¹.

As to B9, the koff was 0.00403 s⁻¹.

As to B10, the off-rate constant (koff) turned out to be 0.0046 s⁻¹.

As to B11, the koff amounted to 0.00772 s⁻¹.

As for B12, the dissociation rate constant (koff) worked out at 0.00653 s⁻¹.

Turning to B13, the off-rate constant (koff) is 0.00212 s⁻¹.

Take B14: the koff amounted to 0.00661 s⁻¹.

Regarding B15, the koff came to 0.00657 s⁻¹.

Regarding B3, the off-rate (koff) turned out to be 0.00732 s⁻¹.

B16: the koff turned out to be 0.00104 s⁻¹.

As for B17, the koff is 0.00738 s⁻¹.

Regarding B18, the dissociation rate constant (koff) was determined as 0.00785 s⁻¹.

On to B19, for which the off-rate constant (koff) came out at 0.00464 s⁻¹.

B20: the koff amounted to 0.00794 s⁻¹.

Turning to B21, the koff amounted to 0.00586 s⁻¹.

Turning to B4, the dissociation rate constant (koff) came out at 0.00167 s⁻¹.

Take B5: the koff was determined as 0.00222 s⁻¹.

As to B22, the off-rate (koff) came to 0.00611 s⁻¹.

B23: the koff turned out to be 0.00798 s⁻¹.

With B24, the dissociation rate constant (koff) was determined as 0.00643 s⁻¹.

In the case of B25, the off-rate constant (koff) came to 0.00189 s⁻¹.

As for B26, the koff came out at 0.00497 s⁻¹.

Turning to B27, the koff turned out to be 0.0072 s⁻¹.

As to B28, the koff worked out at 0.00556 s⁻¹.

B6: the koff stood at 0.00361 s⁻¹.

With B29, the koff is 0.00181 s⁻¹.

In the next experiment the target is T3, Source 1 VEGF-D, mature dimeric …. Description: SPR Protocol A, KD against that of Ig-1A. As to the method:
as §3, §4
For B7, the “Fold-improvement with respect to Ig-1A” value is 1.8 fold.

The term Kd denotes the free concentration of one partner at which half of the binding sites on the other are occupied at equilibrium, for simple one-to-one binding. Usually koff stands for a measure of how fast the partners let go of each other. Usually kon stands for a measure of how fast the partners come together.
